The values below come from patent publication US10562947B2, “Compositions and methods for preventing or treating diseases, conditions or processes characterized by aberrant fibroblast proliferation and extracellular matrix deposition” (MOERAE MATRIX, INC., priority 2011, dated 2020).

Test in all cases: Kinase Profiling Assay
Common to all, as to type: biochemical
Details in all cases: 100 μM peptide

The target of one assay is PKCβI(h) (Homo sapiens, UniProt P05771). In outline: (§1)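 Peptides designed to inhibit MK2 were checked against a broad human kinase panel (266 enzymes), with duplicate measurement of every activity.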
The target of another assay is Pim-2(h) (Homo sapiens, UniProt Q9P1W9). The procedure, abridged: as §1
The next assay deals with T1, Ros(h) (Homo sapiens, UniProt P08922).
T1 construct: purchased Millipore (IC50 Profiler Express service)
In outline: as §1

Another assay concerns the target PKCδ(h) (Homo sapiens, UniProt Q05655). In outline: as §1
The next assay deals with T2, RIPK2(h) (Homo sapiens, UniProt O43353).
T2 construct: purchased Millipore (IC50 Profiler Express service)
The procedure, abridged:
as §1

The target of a further assay is T3, ROCK-II(h) (Homo sapiens, UniProt O75116).
T3 construct: purchased Millipore (IC50 Profiler Express service)
In outline: as §1

The target of a further assay is Pim-3(h) (Homo sapiens, UniProt Q86V86). In outline:
as §1

The next assay concerns the target Src(T341M)(h) (Homo sapiens, UniProt P12931, T341M). The procedure, abridged:
as §1

For the next assay, the target named is p70S6K(h) (Homo sapiens, UniProt P23443). The procedure, abridged:
as §1

Another assay addresses Lck(h) activated (Homo sapiens, UniProt P06239). In outline:
as §1

In a further assay the target is CaMKIIδ(h) (Homo sapiens, UniProt Q13557). In outline:
as §1

The target in a further assay is T4, HIPK2(h) (Homo sapiens, UniProt Q9H2X6).
T4 construct: purchased Millipore
In outline:
as §1

The target in another assay is T5, SGK2(h) (Homo sapiens, UniProt Q9HBY8).
T5 sequence (Q9HBY8 1-367): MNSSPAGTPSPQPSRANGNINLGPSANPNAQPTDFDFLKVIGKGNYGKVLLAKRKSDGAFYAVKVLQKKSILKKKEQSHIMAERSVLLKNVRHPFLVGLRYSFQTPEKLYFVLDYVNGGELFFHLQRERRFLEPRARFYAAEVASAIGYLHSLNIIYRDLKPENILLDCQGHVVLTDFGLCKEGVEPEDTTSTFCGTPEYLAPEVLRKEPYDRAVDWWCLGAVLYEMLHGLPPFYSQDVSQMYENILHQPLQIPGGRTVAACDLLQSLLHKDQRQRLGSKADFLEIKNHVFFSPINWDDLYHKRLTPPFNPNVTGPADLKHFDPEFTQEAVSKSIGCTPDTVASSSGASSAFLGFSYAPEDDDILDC
The procedure, abridged: as §1

The next assay concerns the target JNK2α2(h) (Homo sapiens, UniProt P45984). In outline: as §1
For another assay, the target named is cKit(D816H)(h) (Homo sapiens, UniProt P10721, D816H). In outline:
as §1

A further assay deals with Mnk2(h) (Homo sapiens, UniProt Q9HBH9). The procedure, abridged:
as §1

The target in a further assay is T6, DDR2(h) (Homo sapiens, UniProt Q16832).
T6 sequence (Q16832 22-855): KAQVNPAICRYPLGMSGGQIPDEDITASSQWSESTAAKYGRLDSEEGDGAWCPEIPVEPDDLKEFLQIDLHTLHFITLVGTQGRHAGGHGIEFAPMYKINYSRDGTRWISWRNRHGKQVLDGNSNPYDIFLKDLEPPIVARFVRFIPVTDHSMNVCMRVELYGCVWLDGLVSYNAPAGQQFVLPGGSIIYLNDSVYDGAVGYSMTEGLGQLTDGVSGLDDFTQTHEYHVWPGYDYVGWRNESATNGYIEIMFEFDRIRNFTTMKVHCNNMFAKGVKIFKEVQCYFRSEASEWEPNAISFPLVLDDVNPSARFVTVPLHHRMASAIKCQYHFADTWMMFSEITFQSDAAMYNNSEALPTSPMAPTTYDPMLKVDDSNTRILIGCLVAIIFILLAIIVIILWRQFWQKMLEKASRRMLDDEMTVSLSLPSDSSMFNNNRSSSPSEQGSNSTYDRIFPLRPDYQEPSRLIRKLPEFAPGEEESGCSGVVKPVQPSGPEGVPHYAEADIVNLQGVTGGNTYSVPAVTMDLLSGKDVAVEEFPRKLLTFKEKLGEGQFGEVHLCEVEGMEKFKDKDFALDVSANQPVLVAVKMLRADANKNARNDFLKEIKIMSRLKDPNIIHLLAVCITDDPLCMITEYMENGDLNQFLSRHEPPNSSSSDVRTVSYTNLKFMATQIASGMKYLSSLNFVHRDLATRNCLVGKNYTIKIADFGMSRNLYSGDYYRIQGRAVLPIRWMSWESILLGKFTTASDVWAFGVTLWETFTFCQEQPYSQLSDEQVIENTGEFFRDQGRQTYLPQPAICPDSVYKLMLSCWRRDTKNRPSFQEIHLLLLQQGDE
In outline:
as §1

The target in a further assay is T7, PRAK(h) (Homo sapiens, UniProt Q8IW41).
T7 construct: purchased Millipore (IC50 Profiler Express service)
T7 sequence (Q8IW41 1-473): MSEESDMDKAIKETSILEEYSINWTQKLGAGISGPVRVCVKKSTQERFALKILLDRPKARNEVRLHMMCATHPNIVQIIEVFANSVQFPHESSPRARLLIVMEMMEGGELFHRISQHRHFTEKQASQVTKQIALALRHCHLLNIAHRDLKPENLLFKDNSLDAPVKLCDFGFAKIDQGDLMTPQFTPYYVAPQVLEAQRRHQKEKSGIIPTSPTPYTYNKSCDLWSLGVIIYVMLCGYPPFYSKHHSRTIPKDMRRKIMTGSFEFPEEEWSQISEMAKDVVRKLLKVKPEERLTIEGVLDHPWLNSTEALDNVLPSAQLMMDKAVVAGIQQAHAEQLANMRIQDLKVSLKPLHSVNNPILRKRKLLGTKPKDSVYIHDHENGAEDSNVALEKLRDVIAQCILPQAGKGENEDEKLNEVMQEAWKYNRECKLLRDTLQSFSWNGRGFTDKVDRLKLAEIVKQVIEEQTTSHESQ
In outline: as §1

T2 sequence (O43353 whole entry): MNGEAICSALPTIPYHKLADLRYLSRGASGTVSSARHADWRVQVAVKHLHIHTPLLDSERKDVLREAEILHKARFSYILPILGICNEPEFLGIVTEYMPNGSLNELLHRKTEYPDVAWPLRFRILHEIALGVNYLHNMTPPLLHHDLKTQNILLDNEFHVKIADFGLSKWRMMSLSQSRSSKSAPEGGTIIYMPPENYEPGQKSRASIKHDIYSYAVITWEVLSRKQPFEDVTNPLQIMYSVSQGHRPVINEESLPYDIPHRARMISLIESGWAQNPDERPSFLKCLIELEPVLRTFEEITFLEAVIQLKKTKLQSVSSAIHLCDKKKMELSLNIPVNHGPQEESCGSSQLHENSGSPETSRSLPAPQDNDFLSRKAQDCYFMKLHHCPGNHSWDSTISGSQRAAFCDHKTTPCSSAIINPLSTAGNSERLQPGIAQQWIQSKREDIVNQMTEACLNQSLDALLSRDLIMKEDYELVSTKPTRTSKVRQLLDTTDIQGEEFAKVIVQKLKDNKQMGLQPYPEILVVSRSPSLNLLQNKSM
CaMKIIδ(h), sequence (Q13557 whole entry): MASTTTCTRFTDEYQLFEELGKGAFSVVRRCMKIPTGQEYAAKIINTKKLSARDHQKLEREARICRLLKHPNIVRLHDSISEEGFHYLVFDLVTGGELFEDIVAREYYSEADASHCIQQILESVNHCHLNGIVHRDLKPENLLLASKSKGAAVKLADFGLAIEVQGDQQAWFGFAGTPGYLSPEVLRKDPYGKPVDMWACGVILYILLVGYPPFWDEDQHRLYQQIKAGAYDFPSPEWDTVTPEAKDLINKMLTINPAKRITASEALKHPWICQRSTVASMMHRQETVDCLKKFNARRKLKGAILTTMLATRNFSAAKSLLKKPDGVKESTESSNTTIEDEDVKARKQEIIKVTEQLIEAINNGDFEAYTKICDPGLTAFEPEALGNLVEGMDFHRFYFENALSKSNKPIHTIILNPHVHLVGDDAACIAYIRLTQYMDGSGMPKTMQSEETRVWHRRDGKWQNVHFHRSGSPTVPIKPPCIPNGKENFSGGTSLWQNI
T4 sequence (Q9H2X6 whole entry): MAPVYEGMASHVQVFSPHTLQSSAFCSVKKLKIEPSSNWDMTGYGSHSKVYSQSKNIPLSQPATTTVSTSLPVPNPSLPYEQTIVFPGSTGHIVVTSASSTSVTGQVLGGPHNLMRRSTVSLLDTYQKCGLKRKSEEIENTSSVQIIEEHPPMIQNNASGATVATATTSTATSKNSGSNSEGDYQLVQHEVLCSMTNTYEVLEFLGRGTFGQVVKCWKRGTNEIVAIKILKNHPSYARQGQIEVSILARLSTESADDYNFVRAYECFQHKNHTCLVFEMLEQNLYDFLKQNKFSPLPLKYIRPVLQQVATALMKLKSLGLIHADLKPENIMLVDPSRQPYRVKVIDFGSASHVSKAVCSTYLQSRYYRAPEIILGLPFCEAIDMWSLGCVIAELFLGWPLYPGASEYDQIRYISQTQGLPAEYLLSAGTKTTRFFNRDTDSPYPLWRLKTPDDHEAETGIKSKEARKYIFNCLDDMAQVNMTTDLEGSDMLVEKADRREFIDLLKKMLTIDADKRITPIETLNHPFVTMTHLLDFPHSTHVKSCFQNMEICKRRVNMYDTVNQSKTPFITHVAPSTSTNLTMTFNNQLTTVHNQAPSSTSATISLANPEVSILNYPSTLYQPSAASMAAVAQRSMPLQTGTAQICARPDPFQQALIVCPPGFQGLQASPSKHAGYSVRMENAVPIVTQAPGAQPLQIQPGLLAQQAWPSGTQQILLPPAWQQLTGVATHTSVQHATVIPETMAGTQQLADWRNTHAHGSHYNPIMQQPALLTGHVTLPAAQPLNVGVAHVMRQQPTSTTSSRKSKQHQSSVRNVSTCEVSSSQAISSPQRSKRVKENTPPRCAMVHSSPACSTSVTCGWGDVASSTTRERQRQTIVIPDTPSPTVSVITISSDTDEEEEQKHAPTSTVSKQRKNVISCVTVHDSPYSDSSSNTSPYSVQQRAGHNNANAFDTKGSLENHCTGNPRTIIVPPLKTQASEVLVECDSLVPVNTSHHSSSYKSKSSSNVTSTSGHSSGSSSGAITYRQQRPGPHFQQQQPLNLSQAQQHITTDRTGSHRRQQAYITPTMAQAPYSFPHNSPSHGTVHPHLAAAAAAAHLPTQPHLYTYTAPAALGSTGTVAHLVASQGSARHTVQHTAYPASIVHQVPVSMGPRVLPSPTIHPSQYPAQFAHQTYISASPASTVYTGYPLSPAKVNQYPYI
T1 sequence (P08922 28-2347): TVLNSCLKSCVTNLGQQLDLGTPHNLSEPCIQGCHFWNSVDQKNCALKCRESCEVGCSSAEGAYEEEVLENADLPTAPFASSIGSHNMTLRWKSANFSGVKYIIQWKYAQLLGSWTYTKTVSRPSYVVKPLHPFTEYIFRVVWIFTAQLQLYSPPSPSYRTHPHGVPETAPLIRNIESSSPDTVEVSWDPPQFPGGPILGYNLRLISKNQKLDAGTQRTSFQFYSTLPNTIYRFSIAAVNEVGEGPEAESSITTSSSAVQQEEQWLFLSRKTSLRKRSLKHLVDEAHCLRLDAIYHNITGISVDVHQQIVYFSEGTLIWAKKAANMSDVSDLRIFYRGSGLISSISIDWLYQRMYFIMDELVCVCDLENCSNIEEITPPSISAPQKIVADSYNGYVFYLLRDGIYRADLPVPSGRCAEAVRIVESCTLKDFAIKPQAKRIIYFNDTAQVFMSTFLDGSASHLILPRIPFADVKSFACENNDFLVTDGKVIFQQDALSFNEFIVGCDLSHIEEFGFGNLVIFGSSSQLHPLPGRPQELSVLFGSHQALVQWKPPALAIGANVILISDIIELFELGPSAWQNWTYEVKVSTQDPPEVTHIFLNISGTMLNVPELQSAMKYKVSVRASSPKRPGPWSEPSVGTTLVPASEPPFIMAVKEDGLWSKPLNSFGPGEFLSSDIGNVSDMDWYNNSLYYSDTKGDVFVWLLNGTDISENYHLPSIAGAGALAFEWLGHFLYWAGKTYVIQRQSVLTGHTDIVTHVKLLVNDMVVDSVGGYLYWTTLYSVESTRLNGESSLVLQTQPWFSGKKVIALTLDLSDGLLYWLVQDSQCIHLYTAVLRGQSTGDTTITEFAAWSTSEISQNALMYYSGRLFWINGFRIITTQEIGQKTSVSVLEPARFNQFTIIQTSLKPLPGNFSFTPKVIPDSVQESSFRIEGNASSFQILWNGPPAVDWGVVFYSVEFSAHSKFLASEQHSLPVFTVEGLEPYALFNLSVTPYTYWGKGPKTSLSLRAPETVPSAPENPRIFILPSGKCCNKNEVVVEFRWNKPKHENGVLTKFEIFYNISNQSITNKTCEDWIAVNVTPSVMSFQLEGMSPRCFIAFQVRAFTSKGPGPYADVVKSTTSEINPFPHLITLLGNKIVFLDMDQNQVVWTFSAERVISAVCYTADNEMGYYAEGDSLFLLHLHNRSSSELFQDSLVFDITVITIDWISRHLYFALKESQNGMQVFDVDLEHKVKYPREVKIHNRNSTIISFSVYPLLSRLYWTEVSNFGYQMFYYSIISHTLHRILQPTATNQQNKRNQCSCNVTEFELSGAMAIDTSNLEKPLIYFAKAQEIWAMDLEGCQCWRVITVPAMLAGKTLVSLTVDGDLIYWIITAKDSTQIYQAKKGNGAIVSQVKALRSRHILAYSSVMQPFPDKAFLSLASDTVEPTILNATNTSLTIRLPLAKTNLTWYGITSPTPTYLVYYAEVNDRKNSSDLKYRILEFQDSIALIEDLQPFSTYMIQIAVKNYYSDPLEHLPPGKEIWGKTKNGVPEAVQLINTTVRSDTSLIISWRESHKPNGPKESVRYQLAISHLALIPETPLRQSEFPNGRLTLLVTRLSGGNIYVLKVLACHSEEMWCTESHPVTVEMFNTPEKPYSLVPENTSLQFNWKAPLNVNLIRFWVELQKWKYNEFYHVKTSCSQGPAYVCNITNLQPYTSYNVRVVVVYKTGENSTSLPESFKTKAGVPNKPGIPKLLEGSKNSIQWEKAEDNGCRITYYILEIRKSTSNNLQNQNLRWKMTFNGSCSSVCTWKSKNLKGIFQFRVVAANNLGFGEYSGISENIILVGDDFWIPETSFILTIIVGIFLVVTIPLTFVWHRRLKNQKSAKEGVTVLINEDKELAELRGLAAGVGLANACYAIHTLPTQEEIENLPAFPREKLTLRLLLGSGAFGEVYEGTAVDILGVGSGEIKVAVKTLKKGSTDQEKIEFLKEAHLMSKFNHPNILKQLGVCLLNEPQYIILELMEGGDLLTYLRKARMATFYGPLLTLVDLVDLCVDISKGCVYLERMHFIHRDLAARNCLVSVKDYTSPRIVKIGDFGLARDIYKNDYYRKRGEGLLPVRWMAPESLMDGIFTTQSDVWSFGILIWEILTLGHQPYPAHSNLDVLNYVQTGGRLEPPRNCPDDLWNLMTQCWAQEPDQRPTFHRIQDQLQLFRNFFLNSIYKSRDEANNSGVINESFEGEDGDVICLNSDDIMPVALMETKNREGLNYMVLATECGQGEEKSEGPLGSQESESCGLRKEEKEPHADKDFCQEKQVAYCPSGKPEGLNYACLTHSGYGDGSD
Lck(h) activated, sequence (P06239 whole entry): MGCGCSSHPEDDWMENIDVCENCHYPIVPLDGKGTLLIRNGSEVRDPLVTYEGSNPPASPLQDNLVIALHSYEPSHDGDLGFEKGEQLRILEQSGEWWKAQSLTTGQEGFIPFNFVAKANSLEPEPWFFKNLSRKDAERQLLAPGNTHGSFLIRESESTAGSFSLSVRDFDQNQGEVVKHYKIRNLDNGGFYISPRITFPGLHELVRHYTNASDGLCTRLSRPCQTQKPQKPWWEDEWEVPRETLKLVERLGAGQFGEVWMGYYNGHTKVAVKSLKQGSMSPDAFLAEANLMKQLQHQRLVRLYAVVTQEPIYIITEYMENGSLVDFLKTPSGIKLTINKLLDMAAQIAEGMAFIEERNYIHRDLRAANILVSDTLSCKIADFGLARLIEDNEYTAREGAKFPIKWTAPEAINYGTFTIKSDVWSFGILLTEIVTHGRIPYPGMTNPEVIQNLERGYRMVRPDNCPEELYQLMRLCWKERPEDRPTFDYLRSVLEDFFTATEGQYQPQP

Regarding “YARAAARQARAKALNRQLGVA (Mammalian) [MMI-0200]”, the “PKCβI(h) % activity” value in the assay with PKCβI(h) turned out to be 98%. Also, the “Pim-2(h) % activity” value with Pim-2(h) is reported as 74%. Moreover, the “Ros(h) % activity” value in the assay with Ros(h) amounted to 86%. For the same sequence, the “PKCδ(h) % activity” value with PKCδ(h) is on record as 101%. For the same sequence, the “RIPK2(h) % activity” value in the assay with RIPK2(h) came out at 98%. Further, the “ROCK-II(h) % activity” value in the assay with ROCK-II(h) stood at 85%. The “Pim-3(h) % activity” value in the assay with Pim-3(h) is 94%. Further, in the assay with Src(T341M)(h), the “Src(T341M)(h) % activity” value is 56%. In addition, the “p70S6K(h) % activity” value in the assay with p70S6K(h) is 84%. Further, the “Lck(h) activated % activity” value with Lck(h) activated came to 90%. The “CaMKIIδ(h) % activity” value with CaMKIIδ(h) is reported as 2%.
As to “HRRIKAWLKKIKALARQLGVAA (Mammalian) [MMI-0500]”, the “PKCβI(h) % activity” value with PKCβI(h) stood at 1%. Moreover, the “Pim-2(h) % activity” value with Pim-2(h) is 46%. Also, the “HIPK2(h) % activity” value in the assay with HIPK2(h) is given as 38%. Further, in the assay with Ros(h), the “Ros(h) % activity” value was 150%. In addition, in the assay with PKCδ(h), the “PKCδ(h) % activity” value was 61%. Also, in the assay with SGK2(h), the “SGK2(h) % activity” value is recorded as −1%. The “JNK2α2(h) % activity” value with JNK2α2(h) came to 81%. Moreover, the “cKit(D816H)(h) % activity” value with cKit(D816H)(h) amounted to 194%. In addition, the “RIPK2(h) % activity” value with RIPK2(h) is 30%. The “ROCK-II(h) % activity” value in the assay with ROCK-II(h) was found to be 2%. The “Pim-3(h) % activity” value with Pim-3(h) is recorded as 37%. For the same sequence, in the assay with Src(T341M)(h), the “Src(T341M)(h) % activity” value is reported as 59%. Further, in the assay with Mnk2(h), the “Mnk2(h) % activity” value is recorded as 6%. The “DDR2(h) % activity” value with DDR2(h) was found to be 79%. Also, in the assay with p70S6K(h), the “p70S6K(h) % activity” value came out at 3%. For the same sequence, in the assay with Lck(h) activated, the “Lck(h) activated % activity” value worked out at 76%. Further, the “CaMKIIδ(h) % activity” value with CaMKIIδ(h) came out at 1%. Further, the “PRAK(h) % activity” value with PRAK(h) is reported as 95%.
As to KAFAKLAARLYRKALARQLGVAA [MMI-0400], the “PKCβI(h) % activity” value with PKCβI(h) was found to be 78%. For the same sequence, the “Pim-2(h) % activity” value in the assay with Pim-2(h) is 92%. Besides, the “HIPK2(h) % activity” value with HIPK2(h) stood at 90%. For the same sequence, the “Ros(h) % activity” value in the assay with Ros(h) is 99%. Moreover, the “PKCδ(h) % activity” value with PKCδ(h) is recorded as 90%. In the assay with SGK2(h), the “SGK2(h) % activity” value worked out at 98%. Besides, the “JNK2α2(h) % activity” value with JNK2α2(h) is on record as 96%. Besides, the “cKit(D816H)(h) % activity” value with cKit(D816H)(h) was found to be 143%. Moreover, the “RIPK2(h) % activity” value with RIPK2(h) is reported as 98%. Also, the “ROCK-II(h) % activity” value in the assay with ROCK-II(h) is recorded as 77%. In addition, the “Pim-3(h) % activity” value with Pim-3(h) was determined as 80%. For the same sequence, in the assay with Src(T341M)(h), the “Src(T341M)(h) % activity” value is reported as 76%. Further, in the assay with Mnk2(h), the “Mnk2(h) % activity” value is on record as 86%. Further, the “DDR2(h) % activity” value with DDR2(h) turned out to be 95%. Moreover, the “p70S6K(h) % activity” value with p70S6K(h) was 33%. For the same sequence, the “Lck(h) activated % activity” value with Lck(h) activated was found to be 216%. Besides, the “CaMKIIδ(h) % activity” value in the assay with CaMKIIδ(h) is on record as 2%. Moreover, in the assay with PRAK(h), the “PRAK(h) % activity” value came to 118%.
On to FAKLAARLYRKALARQLGVAA [MMI-0300], for which the “PKCβI(h) % activity” value in the assay with PKCβI(h) amounted to 78%. Moreover, the “Pim-2(h) % activity” value with Pim-2(h) was determined as 76%. The “HIPK2(h) % activity” value with HIPK2(h) was 73%. Moreover, the “Ros(h) % activity” value with Ros(h) is reported as 95%. The “PKCδ(h) % activity” value with PKCδ(h) is given as 101%. Besides, in the assay with SGK2(h), the “SGK2(h) % activity” value is listed as 56%. The “JNK2α2(h) % activity” value with JNK2α2(h) was 98%. The “cKit(D816H)(h) % activity” value in the assay with cKit(D816H)(h) is reported as 126%. The “RIPK2(h) % activity” value with RIPK2(h) came out at 97%. Moreover, the “ROCK-II(h) % activity” value with ROCK-II(h) was 74%. Besides, the “Pim-3(h) % activity” value in the assay with Pim-3(h) turned out to be 80%. Moreover, the “Src(T341M)(h) % activity” value with Src(T341M)(h) was determined as 70%. In addition, the “Mnk2(h) % activity” value with Mnk2(h) is on record as 89%. For the same sequence, the “DDR2(h) % activity” value with DDR2(h) is listed as 94%. For the same sequence, the “p70S6K(h) % activity” value with p70S6K(h) is on record as 35%. The “Lck(h) activated % activity” value with Lck(h) activated amounted to 243%. In addition, the “CaMKIIδ(h) % activity” value with CaMKIIδ(h) stood at 1%. Further, in the assay with PRAK(h), the “PRAK(h) % activity” value came to 128%.
